Starred links: 1 amine or outer side, 2 acyl side, 3 side chain; linkers in the order of their positions; H or OH if unused. Positions of bridges follow the written chain, without caps; N, C: chain ends. Non-standard residues stand in square brackets, D forms with d. Groups on a side chain read outwards from the residue. No end group written: not given here. *: point of attachment. dpeg = —[CO(CH2)O(CH2)2O(CH2)NH]— spacer, O=C(COCCOCN[*:1])[*:2]; C20 diacid = O=C(O)CCCCCCCCCCCCCCCCCCC(=O)*; C19 diacid = O=C(O)CCCCCCCCCCCCCCCCCC(=O)*; C18 diacid = O=C(O)CCCCCCCCCCCCCCCCC(=O)*; γGlu = O=C(O)[C@H](CCC(=O)[*:2])N[*:1]
T1: NPY5R
T1 sequence (Q15761 1-445, species assumed, looked up): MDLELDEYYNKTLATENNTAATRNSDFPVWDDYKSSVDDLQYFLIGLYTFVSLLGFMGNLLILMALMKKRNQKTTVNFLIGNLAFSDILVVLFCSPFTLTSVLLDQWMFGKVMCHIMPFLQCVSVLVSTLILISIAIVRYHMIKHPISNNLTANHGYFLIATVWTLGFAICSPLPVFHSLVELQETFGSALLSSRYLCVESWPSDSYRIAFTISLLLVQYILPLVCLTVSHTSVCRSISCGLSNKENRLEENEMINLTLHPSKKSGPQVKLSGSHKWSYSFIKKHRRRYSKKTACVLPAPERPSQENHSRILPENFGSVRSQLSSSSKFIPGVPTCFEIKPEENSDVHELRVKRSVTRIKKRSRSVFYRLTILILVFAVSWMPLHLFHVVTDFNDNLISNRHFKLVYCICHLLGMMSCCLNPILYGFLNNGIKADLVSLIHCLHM

T2: NPY2R
T2 sequence (P49146 1-381, species assumed, looked up): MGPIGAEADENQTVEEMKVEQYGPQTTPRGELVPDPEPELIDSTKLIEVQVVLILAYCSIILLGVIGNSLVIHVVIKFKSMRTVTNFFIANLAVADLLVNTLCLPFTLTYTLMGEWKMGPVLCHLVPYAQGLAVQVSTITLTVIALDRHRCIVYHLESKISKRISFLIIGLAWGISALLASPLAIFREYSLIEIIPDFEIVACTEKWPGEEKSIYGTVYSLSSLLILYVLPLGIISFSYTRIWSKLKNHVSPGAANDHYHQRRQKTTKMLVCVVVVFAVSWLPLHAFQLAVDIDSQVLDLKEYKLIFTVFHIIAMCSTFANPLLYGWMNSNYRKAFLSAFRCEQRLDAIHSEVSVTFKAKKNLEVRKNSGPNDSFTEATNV

B1: Compound A39 (peptide)
peptide: PKPEKPGK([γGlu-γGlu-C19 diacid])DASPKEWERYYKDLRHYLNWLTRQRF-NH2
modifications: lactam 16-20; N-terminus assumed
SMILES: CC(C)C[C@H](NC(=O)[C@H](CC(=O)O)NC(=O)[C@@H]1CCCCNC(=O)CC[C@H](NC(=O)[C@H](Cc2c[nH]c3ccccc23)NC(=O)[C@H](CCC(=O)O)NC(=O)[C@H](CCCCN)NC(=O)[C@@H]2CCCN2C(=O)[C@H](CO)NC(=O)[C@H](C)NC(=O)[C@H](CC(=O)O)NC(=O)[C@H](CCCCNC(=O)CC[C@H](NC(=O)CC[C@H](NC(=O)CCCCCCCCCCCCCCCCCC(=O)O)C(=O)O)C(=O)O)NC(=O)CNC(=O)[C@@H]2CCCN2C(=O)[C@H](CCCCN)NC(=O)[C@H](CCC(=O)O)NC(=O)[C@@H]2CCCN2C(=O)[C@H](CCCCN)NC(=O)[C@@H]2CCCN2)C(=O)N[C@@H](CCCNC(=N)N)C(=O)N[C@@H](Cc2ccc(O)cc2)C(=O)N[C@@H](Cc2ccc(O)cc2)C(=O)N1)C(=O)N[C@@H](CCCNC(=N)N)C(=O)N[C@@H](Cc1c[nH]cn1)C(=O)N[C@@H](Cc1ccc(O)cc1)C(=O)N[C@@H](CC(C)C)C(=O)N[C@@H](CC(N)=O)C(=O)N[C@@H](Cc1c[nH]c2ccccc12)C(=O)N[C@@H](CC(C)C)C(=O)N[C@H](C(=O)N[C@@H](CCCNC(=N)N)C(=O)N[C@@H](CCC(N)=O)C(=O)N[C@@H](CCCNC(=N)N)C(=O)N[C@@H](Cc1ccccc1)C(N)=O)[C@@H](C)O
B2: Compound A14 (peptide)
peptide: PKPEAPGKDASPEEWNRYY[dK]([γGlu-γGlu-C20 diacid])DLRHYLNWLTRQRF-NH2
modifications: N-terminus assumed
SMILES: CC(C)C[C@H](NC(=O)[C@H](Cc1ccc(O)cc1)NC(=O)[C@H](Cc1c[nH]cn1)NC(=O)[C@H](CCCNC(=N)N)NC(=O)[C@H](CC(C)C)NC(=O)[C@H](CC(=O)O)NC(=O)[C@@H](CCCCNC(=O)CC[C@H](NC(=O)CC[C@H](NC(=O)CCCCCCCCCCCCCCCCCCC(=O)O)C(=O)O)C(=O)O)NC(=O)[C@H](Cc1ccc(O)cc1)NC(=O)[C@H](Cc1ccc(O)cc1)NC(=O)[C@H](CCCNC(=N)N)NC(=O)[C@H](CC(N)=O)NC(=O)[C@H](Cc1c[nH]c2ccccc12)NC(=O)[C@H](CCC(=O)O)NC(=O)[C@H](CCC(=O)O)NC(=O)[C@@H]1CCCN1C(=O)[C@H](CO)NC(=O)[C@H](C)NC(=O)[C@H](CC(=O)O)NC(=O)[C@H](CCCCN)NC(=O)CNC(=O)[C@@H]1CCCN1C(=O)[C@H](C)NC(=O)[C@H](CCC(=O)O)NC(=O)[C@@H]1CCCN1C(=O)[C@H](CCCCN)NC(=O)[C@@H]1CCCN1)C(=O)N[C@@H](CC(N)=O)C(=O)N[C@@H](Cc1c[nH]c2ccccc12)C(=O)N[C@@H](CC(C)C)C(=O)N[C@H](C(=O)N[C@@H](CCCNC(=N)N)C(=O)N[C@@H](CCC(N)=O)C(=O)N[C@@H](CCCNC(=N)N)C(=O)N[C@@H](Cc1ccccc1)C(N)=O)[C@@H](C)O
B3: Compound A36 (peptide)
peptide: PKPEK([γGlu-γGlu-C19 diacid])PGEDASPKEWNRYYKDLRHYLNWLTRQRF-NH2
modifications: N-terminus assumed
SMILES: CC(C)C[C@H](NC(=O)[C@H](CC(=O)O)NC(=O)[C@H](CCCCN)NC(=O)[C@H](Cc1ccc(O)cc1)NC(=O)[C@H](Cc1ccc(O)cc1)NC(=O)[C@H](CCCNC(=N)N)NC(=O)[C@H](CC(N)=O)NC(=O)[C@H](Cc1c[nH]c2ccccc12)NC(=O)[C@H](CCC(=O)O)NC(=O)[C@H](CCCCN)NC(=O)[C@@H]1CCCN1C(=O)[C@H](CO)NC(=O)[C@H](C)NC(=O)[C@H](CC(=O)O)NC(=O)[C@H](CCC(=O)O)NC(=O)CNC(=O)[C@@H]1CCCN1C(=O)[C@H](CCCCNC(=O)CC[C@H](NC(=O)CC[C@H](NC(=O)CCCCCCCCCCCCCCCCCC(=O)O)C(=O)O)C(=O)O)NC(=O)[C@H](CCC(=O)O)NC(=O)[C@@H]1CCCN1C(=O)[C@H](CCCCN)NC(=O)[C@@H]1CCCN1)C(=O)N[C@@H](CCCNC(=N)N)C(=O)N[C@@H](Cc1c[nH]cn1)C(=O)N[C@@H](Cc1ccc(O)cc1)C(=O)N[C@@H](CC(C)C)C(=O)N[C@@H](CC(N)=O)C(=O)N[C@@H](Cc1c[nH]c2ccccc12)C(=O)N[C@@H](CC(C)C)C(=O)N[C@H](C(=O)N[C@@H](CCCNC(=N)N)C(=O)N[C@@H](CCC(N)=O)C(=O)N[C@@H](CCCNC(=N)N)C(=O)N[C@@H](Cc1ccccc1)C(N)=O)[C@@H](C)O
B4: Compound A34 (peptide)
peptide: PKPEKPGEDASPKEWDRYYK([γGlu-γGlu-C20 diacid])DLRHYLNWLTRQRF-NH2
modifications: N-terminus assumed
SMILES: CC(C)C[C@H](NC(=O)[C@H](CC(=O)O)NC(=O)[C@H](CCCCNC(=O)CC[C@H](NC(=O)CC[C@H](NC(=O)CCCCCCCCCCCCCCCCCCC(=O)O)C(=O)O)C(=O)O)NC(=O)[C@H](Cc1ccc(O)cc1)NC(=O)[C@H](Cc1ccc(O)cc1)NC(=O)[C@H](CCCNC(=N)N)NC(=O)[C@H](CC(=O)O)NC(=O)[C@H](Cc1c[nH]c2ccccc12)NC(=O)[C@H](CCC(=O)O)NC(=O)[C@H](CCCCN)NC(=O)[C@@H]1CCCN1C(=O)[C@H](CO)NC(=O)[C@H](C)NC(=O)[C@H](CC(=O)O)NC(=O)[C@H](CCC(=O)O)NC(=O)CNC(=O)[C@@H]1CCCN1C(=O)[C@H](CCCCN)NC(=O)[C@H](CCC(=O)O)NC(=O)[C@@H]1CCCN1C(=O)[C@H](CCCCN)NC(=O)[C@@H]1CCCN1)C(=O)N[C@@H](CCCNC(=N)N)C(=O)N[C@@H](Cc1c[nH]cn1)C(=O)N[C@@H](Cc1ccc(O)cc1)C(=O)N[C@@H](CC(C)C)C(=O)N[C@@H](CC(N)=O)C(=O)N[C@@H](Cc1c[nH]c2ccccc12)C(=O)N[C@@H](CC(C)C)C(=O)N[C@H](C(=O)N[C@@H](CCCNC(=N)N)C(=O)N[C@@H](CCC(N)=O)C(=O)N[C@@H](CCCNC(=N)N)C(=O)N[C@@H](Cc1ccccc1)C(N)=O)[C@@H](C)O
B5: Compound A35 (peptide)
peptide: PKPEK([γGlu-γGlu-C18 diacid])PGEDASPKEWDRYYKDLRHYLNWLTRQRF-NH2
modifications: N-terminus assumed
SMILES: CC(C)C[C@H](NC(=O)[C@H](CC(=O)O)NC(=O)[C@H](CCCCN)NC(=O)[C@H](Cc1ccc(O)cc1)NC(=O)[C@H](Cc1ccc(O)cc1)NC(=O)[C@H](CCCNC(=N)N)NC(=O)[C@H](CC(=O)O)NC(=O)[C@H](Cc1c[nH]c2ccccc12)NC(=O)[C@H](CCC(=O)O)NC(=O)[C@H](CCCCN)NC(=O)[C@@H]1CCCN1C(=O)[C@H](CO)NC(=O)[C@H](C)NC(=O)[C@H](CC(=O)O)NC(=O)[C@H](CCC(=O)O)NC(=O)CNC(=O)[C@@H]1CCCN1C(=O)[C@H](CCCCNC(=O)CC[C@H](NC(=O)CC[C@H](NC(=O)CCCCCCCCCCCCCCCCC(=O)O)C(=O)O)C(=O)O)NC(=O)[C@H](CCC(=O)O)NC(=O)[C@@H]1CCCN1C(=O)[C@H](CCCCN)NC(=O)[C@@H]1CCCN1)C(=O)N[C@@H](CCCNC(=N)N)C(=O)N[C@@H](Cc1c[nH]cn1)C(=O)N[C@@H](Cc1ccc(O)cc1)C(=O)N[C@@H](CC(C)C)C(=O)N[C@@H](CC(N)=O)C(=O)N[C@@H](Cc1c[nH]c2ccccc12)C(=O)N[C@@H](CC(C)C)C(=O)N[C@H](C(=O)N[C@@H](CCCNC(=N)N)C(=O)N[C@@H](CCC(N)=O)C(=O)N[C@@H](CCCNC(=N)N)C(=O)N[C@@H](Cc1ccccc1)C(N)=O)[C@@H](C)O
B6: Compound A65 (peptide)
peptide: PKPEAPGKDASPEEWNRYY[dK]([γGlu-dpeg-dpeg-γGlu-C20 diacid])DLRHYLNWLTRQRF-NH2
B7: Compound A72 (peptide)
peptide: PKPEK([γGlu-γGlu-C20 diacid])PGEDASPKEWNRYYKDLRHYLNWLTRQRF-NH2
modifications: N-terminus assumed
SMILES: CC(C)C[C@H](NC(=O)[C@H](CC(=O)O)NC(=O)[C@H](CCCCN)NC(=O)[C@H](Cc1ccc(O)cc1)NC(=O)[C@H](Cc1ccc(O)cc1)NC(=O)[C@H](CCCNC(=N)N)NC(=O)[C@H](CC(N)=O)NC(=O)[C@H](Cc1c[nH]c2ccccc12)NC(=O)[C@H](CCC(=O)O)NC(=O)[C@H](CCCCN)NC(=O)[C@@H]1CCCN1C(=O)[C@H](CO)NC(=O)[C@H](C)NC(=O)[C@H](CC(=O)O)NC(=O)[C@H](CCC(=O)O)NC(=O)CNC(=O)[C@@H]1CCCN1C(=O)[C@H](CCCCNC(=O)CC[C@H](NC(=O)CC[C@H](NC(=O)CCCCCCCCCCCCCCCCCCC(=O)O)C(=O)O)C(=O)O)NC(=O)[C@H](CCC(=O)O)NC(=O)[C@@H]1CCCN1C(=O)[C@H](CCCCN)NC(=O)[C@@H]1CCCN1)C(=O)N[C@@H](CCCNC(=N)N)C(=O)N[C@@H](Cc1c[nH]cn1)C(=O)N[C@@H](Cc1ccc(O)cc1)C(=O)N[C@@H](CC(C)C)C(=O)N[C@@H](CC(N)=O)C(=O)N[C@@H](Cc1c[nH]c2ccccc12)C(=O)N[C@@H](CC(C)C)C(=O)N[C@H](C(=O)N[C@@H](CCCNC(=N)N)C(=O)N[C@@H](CCC(N)=O)C(=O)N[C@@H](CCCNC(=N)N)C(=O)N[C@@H](Cc1ccccc1)C(N)=O)[C@@H](C)O

Target: T1, NPY5R
Test: cell-based or functional assay

NPY5R pEC50 | Binder
8.9 -Log(EC50, M) | B1
8.3 -Log(EC50, M) | B2
8.7 -Log(EC50, M) | B3
8.8 -Log(EC50, M) | B4
9.1 -Log(EC50, M) | B5
8.6 -Log(EC50, M) | B6
8.8 -Log(EC50, M) | B7

Target: T2, NPY2R
Test: cell-based or functional assay

NPY2R pEC50 | Binder
10.4 -Log(EC50, M) | B1
10.9 -Log(EC50, M) | B3
10.2 -Log(EC50, M) | B4
10.5 -Log(EC50, M) | B5
10.2 -Log(EC50, M) | B6
10.8 -Log(EC50, M) | B7

Target: NPY1R
Sequence (P25929 whole entry): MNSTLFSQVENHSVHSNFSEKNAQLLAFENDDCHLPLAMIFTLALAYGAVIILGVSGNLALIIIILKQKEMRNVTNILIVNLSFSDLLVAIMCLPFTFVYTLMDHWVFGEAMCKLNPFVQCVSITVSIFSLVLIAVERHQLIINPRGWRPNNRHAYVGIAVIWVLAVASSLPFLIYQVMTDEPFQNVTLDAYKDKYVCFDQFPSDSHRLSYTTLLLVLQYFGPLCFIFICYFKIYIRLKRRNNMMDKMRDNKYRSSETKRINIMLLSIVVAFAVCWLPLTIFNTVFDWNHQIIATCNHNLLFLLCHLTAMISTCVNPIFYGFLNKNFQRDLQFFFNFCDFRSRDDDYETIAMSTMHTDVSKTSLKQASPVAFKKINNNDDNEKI
Test: cell-based or functional assay

NPY1R pEC50 | Binder
9.1 -Log(EC50, M) | B1
8.5 -Log(EC50, M) | B2
8 -Log(EC50, M) | B6
9 -Log(EC50, M) | B7

From patent publication US20250084142A1 (INTARCIA THERAPEUTICS, published 2025)
